Assay results as given in paper PMC4756812, “ZFP57 recognizes multiple and closely spaced sequence motif variants to maintain repressive epigenetic marks in mouse embryonic stem cells”.

T1: MBP-ZFP57 DNA binding domain (Glu87-Ala195) (Mus musculus, UniProt Q8C6P8 87-195)
T1 sequence: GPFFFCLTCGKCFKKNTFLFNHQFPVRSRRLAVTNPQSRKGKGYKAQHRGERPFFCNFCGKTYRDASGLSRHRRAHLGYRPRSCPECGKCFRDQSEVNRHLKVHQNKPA

B1: Methylated Control (dsDNA)
DNA 1: GTAATATTGCCGCAGTAATA
DNA 2: TATTACTGCGGCAATATTAC
modifications: 5mC at top 11 and bottom 9 (5'-based; printed Z)
B2: Methylated 1G (dsDNA)
DNA 1: GTAATATGGCCGCAGTAATA
DNA 2: TATTACTGCGGCCATATTAC
modifications: 5mC at top 11 and bottom 9
B3: Methylated Commd1 (dsDNA)
DNA 1: GTAACTGCGGCCGCCCCACA
DNA 2: TGTGGGGCGGCCGCAGTTAC
modifications: 5mC at top 8, 12 and bottom 12, 8 (5'-based)
B4: Methylated Ston2 JF1 (dsDNA)
DNA 1: CTGGGGCGGCAGTTGCCGCAGATGG
DNA 2: CCATCTGCGGCAACTGCCGCCCCAG
modifications: 5mC at top 7, 17; methylated bottom strand not in material

Columns and labels:
[1] = molecular target: T1, MBP-ZFP57 DNA binding domain …; assay: EMSA; EMSA: 25 pmol protein, 2.5 pmol dsDNA, 25 mM HEPES pH 7.9, 50 mM KCl, 6.25 mM MgCl2, 5% glycerol, on ice 10 min; 5% PAGE, SYBR Green stain; settings: protein: recombinant; blunt
[2] = molecular target: T1, MBP-ZFP57 DNA binding domain …; assay: EMSA; lower efficiency than control TGCCGC; EMSA: 25 pmol protein, 2.5 pmol dsDNA, 25 mM HEPES pH 7.9, 50 mM KCl, 6.25 mM MgCl2, 5% glycerol, on ice 10 min; 5% PAGE, SYBR Green stain; settings: protein: recombinant; blunt

Binder | binding result [1] | binding result [2]
B1 | binds | –
B2 | binds | –
B3 | – | binds
B4 | binds | –
